Where two headings read alike, the source gives them in different places.
Tests used:
[1] = biological target: T1, recombinant biotinylated monomeric Fc fusion of human Folate Receptor 1 (huFolR1 ECD-AcTev-Fcknob-Avi tag … (human, UniProt P0DOX5 223-449 = IgG part, biotin on the C-terminal Avi tag)); assay: SPR Biacore, affinity (monovalent), antibody captured via anti-Fab, steady state
T1 construct: also called huFolR1-Fc; human FolR1-Fc
Method: The affinity of the interaction between the anti-FolR1 IgGs or the T cell bispecifics and the recombinant folate receptors was determined as described below (Table 42).
For affinity measurement, direct coupling of around 10000 resonance units (RU) of the anti-human Fab specific antibody (Fab capture kit, GE Healthcare) was performed on a CM5 chip at pH 5.0 using the standard amine coupling kit (GE Healthcare). Anti-FolR1 IgGs or T cell bispecifics were captured at 200 nM with a flow rate of 10 ul/min for 40 sec, the reference flow cell was left without capture. Dilution series (12.35 to 3000 nM) of human Folate Receptor 1 Fc fusion were passed on all flow cells at 30 μl/min for 240 sec to record the association phase. The dissociation phase was monitored for 300 s and triggered by switching from the sample solution to HBS-EP. The chip surface was regenerated after every cycle using a double injection of 60 sec 10 mM Glycine-HCl pH 1.5. Bulk refractive index differences were corrected for by subtracting the response obtained on the reference flow cell 1. […]

[2] = biological target: T2, recombinant biotinylated monomeric Fc fusion of cynomolgus Folate Receptor 1 (cy FolR1 ECD-AcTev-Fcknob-Avi … (cynomolgus, UniProt P0DOX5 223-449 = IgG part, biotin on the C-terminal Avi tag)); assay: SPR Biacore, avidity (bivalent, apparent KD), antigen-Fc on SA chip
T2 construct: also called cyFolR1-Fc; cyno FolR1
Method: (§1) The avidity of the interaction between the anti-FolR1 IgGs or T cell bispecifics and the recombinant folate receptors was determined as described below (Table 41).
(§2) Recombinant biotinylated monomeric Fc fusions of human, cynomolgus and murine Folate Receptor 1 (FolR1-Fc) were directly coupled on a SA chip using the standard coupling instruction (Biacore, Freiburg/Germany). The immobilization level was about 300. […] The dissociation was monitored for 240 or 600 seconds. Bulk refractive index differences were corrected for by subtracting the response obtained on reference flow cell immobilized with recombinant biotinylated murine IL2 receptor Fc fusion. The binding curves resulting from the bivalent binding of the IgG or T cell bispecifics were approximated to a 1:1 Langmuir binding (even though it is a 1:2 binding) and fitted with that model to get an apparent KD representing the avidity of the bivalent binding. The apparent avidity constants for the interactions were derived from the rate constants of the fitting using the Bia Evaluation software (GE Healthcare). For low affinity kinetics with association and dissociation phases too fast to be fitted by the 1:1 Langmuir binding model, the steady state analysis model was applied using the Bia Evaluation software (GE Healthcare). The steady state analysis gives the KD of the binding reaction at equilibrium.

[3] = biological target: T1, recombinant biotinylated monomeric Fc …; assay: as above
Method: as §1, §2

[4] = biological target: T3, human FolR1 expressed on cells (HeLa, SKOV3, HT-29, transfected HEK cells) (human, UniProt P15328 25-234); assay: cell-based or functional assay
[5] = biological target: T4, recombinant biotinylated monomeric Fc fusion of murine Folate Receptor 1 (mu FolR1 ECD-AcTev-Fcknob-Avitag … (murine, UniProt P0DOX5 223-449 = IgG part, biotin on the C-terminal Avi tag)); assay: SPR Biacore, single injection on immobilized antigen-Fc
T4 construct: also called muFolR1-Fc; murine FolR1
Method: (§3) All SPR experiments were performed on a Biacore T200 at 25° C. with HBS-EP as running buffer (0.01 M HEPES pH 7.4, 0.15 M NaCl, 3 mM EDTA, 0.005% Surfactant P20, Biacore, GE Healthcare). The molecules used for affinity and avidity determination are described in Table 45.
(§4) First the anti-FolR1 TCBs were analyzed by single injections (Table 46) to characterize their crossreactivity (to human, murine and cyno FolR1) and specificity (to human FolR1, human FolR2, human FolR3). Recombinant biotinylated monomeric Fc fusions of human, cynomolgus and murine Folate Receptor 1 (FolR1-Fc) or human Folate Receptor 2 and 3 (FolR2-Fc, FolR3-Fc) were directly coupled on a SA chip using the standard coupling instruction (Biacore, Freiburg/Germany). The immobilization level was about 300-400 RU. The TCBs were injected for 60 seconds at a concentration of 500 nM.

[6] = biological target: T5, recombinant biotinylated monomeric Fc fusion of human Folate Receptor 2 (hu FolR2 ECD-AcTev-Fcknob-Avi tag … (human, UniProt P0DOX5 223-449 = IgG part, biotin on the C-terminal Avi tag)); assay: as above
T5 construct: also called FolR2-Fc
Method: as §3, §4

[7] = biological target: T6, recombinant biotinylated monomeric Fc fusion of human Folate Receptor 3 (hu FolR3 ECD-AcTev-Fcknob-Avi tag … (human, UniProt P0DOX5 223-449 = IgG part, biotin on the C-terminal Avi tag)); assay: as above
T6 construct: also called FolR3-Fc
Method: as §3, §4

[8] = biological target: T2, recombinant biotinylated monomeric Fc …; assay: SPR Biacore, affinity (monovalent), antibody captured via anti-Fab, steady state analysis
Method: as §3
(§5) For affinity measurement, direct coupling of around 12000 resonance units (RU) of the anti-human Fab specific antibody (Fab capture kit, GE Healthcare) was performed on a CM5 chip at pH 5.0 using the standard amine coupling kit (GE Healthcare). Anti-FolR1 T cell bispecifics were captured at 20 nM with a flow rate of 10 μl/min for 40 sec, the reference flow cell was left without capture. […] The dissociation phase was monitored for 300 s and triggered by switching from the sample solution to HBS-EP. The chip surface was regenerated after every cycle using a double injection of 60 sec 10 mM Glycine-HCl pH 2.1. Bulk refractive index differences were corrected for by subtracting the response obtained on the reference flow cell 1. The affinity constants for the interactions were derived from the rate constants by fitting to a 1:1 Langmuir binding using the Bia Evaluation software (GE Healthcare). For low affinity kinetics with association and dissociation phases too fast to be fitted by the 1:1 Langmuir binding model, the steady state analysis model was applied using the Bia Evaluation software (GE Healthcare). The steady state analysis gives the KD of the binding reaction at equilibrium.

[9] = biological target: T1, recombinant biotinylated monomeric Fc …; assay: as above
Method: as §3, §5

[10] = biological target: T1, recombinant biotinylated monomeric Fc …; assay: SPR Biacore, avidity (bivalent)
[11] = biological target: T2, recombinant biotinylated monomeric Fc …; assay: SPR Biacore, avidity (bivalent, apparent KD), antigen-Fc on SA chip; remark: listed apart in the source
[12] = biological target: T1, recombinant biotinylated monomeric Fc …; assay: as above; remark: listed apart in the source
[13] = biological target: T3, human FolR1 expressed on cells (HeLa, …); assay: cell-based or functional assay; remark: listed apart in the source
[14] = biological target: T1, recombinant biotinylated monomeric Fc …; assay: SPR Biacore, affinity (monovalent)

T3 sequence (P15328 25-234): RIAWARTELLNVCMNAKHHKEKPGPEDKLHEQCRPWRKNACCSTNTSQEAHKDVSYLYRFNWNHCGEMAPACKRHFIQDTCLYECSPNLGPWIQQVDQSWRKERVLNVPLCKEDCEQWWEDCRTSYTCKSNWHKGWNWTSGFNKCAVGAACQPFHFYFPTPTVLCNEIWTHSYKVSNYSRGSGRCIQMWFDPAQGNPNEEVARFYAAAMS

B1: 16D5 IgG variant W98Y/wt (HC/LC) (antibody, V domains shown)
VH: not shown
VL: QAVVTQEPSLTVSPGGTVTLTCGSSTGAVTTSNYANWVQEKPGQAFRGLIGGTNKRAPGTPARFSGSLLGGKAALTLSGAQPEDEAEYYCALWYSNLWVFGGGTKLTVL
notes: IgG
- Kd [1]: 5400 nM
- Kd [2]: 200 nM
- koff [2]: 0.0361 s⁻¹
- kon [2]: 171000 M⁻¹ s⁻¹
- Kd [3]: 240 nM
- koff [3]: 0.0328 s⁻¹
- kon [3]: 136000 M⁻¹ s⁻¹

B2: 16D5 W96Y/D52E TCB (2+1 inverted, common light chain) (bispecific antibody)
heavy 1: not shown
heavy 2: not shown
light: QAVVTQEPSLTVSPGGTVTLTCGSSTGAVTTSNYANWVQEKPGQAFRGLIGGTNKRAPGTPARFSGSLLGGKAALTLSGAQPEDEAEYYCALWYSNLWVFGGGTKLTVLGQPKAAPSVTLFPPSSEELQANKATLVCLISDFYPGAVTVAWKADSSPVKAGVETTTPSKQSNNKYAASSYLSLTPEQWKSHRSYSCQVTHEGSTVEKTVAPTECS
- EC50 of T-cell killing of Hela, 24 h [4]: 0.0013 nM
- EC50 of T-cell killing of SKov-3, 24 h [4]: 0.235 nM
- binding result [5]: no binding (tested: 500 nM)
- binding result [6]: no binding (tested: 500 nM)
- binding result [7]: no binding (tested: 500 nM)
- Kd [8]: 5600 nM
- Kd [9]: 1400 nM
- fold lower avidity than 16D5 WT (3 nM) [10]: 3 fold
- Kd [11]: 30 nM
- koff [11]: 0.0141 s⁻¹
- kon [11]: 517000 M⁻¹ s⁻¹
- Kd [12]: 10 nM
- koff [12]: 0.0014 s⁻¹
- kon [12]: 124000 M⁻¹ s⁻¹
- EC50 of T-cell killing of HT-29, 48 h [13]: 0.399 nM
- EC50 of T-cell killing of Hela, 48 h [13]: 0.0009 nM
- EC50 of T-cell killing of SKov-3, 48 h [13]: 0.093 nM
- fold lower affinity than 16D5 WT (57 nM) [14]: 24.5 fold

From US20220220224A1 (Hoffmann-La Roche, published 2022)
